Laboratory results reported in patent US20220372155A1 (LYVGEN BIOPHARMA, published 2022).

How the values were obtained:
[1] = molecular target: T1, human CD40 expressed on CHO cells (human, UniProt P25942 21-277); test: FACS, CHO cells
T1 construct: whole, on cells; also used for the reporter cells over-expressing human CD40; also called cellular CD40; CHO-CD40 cells

[2] = molecular target: T2, human PD-L1 expressed on CHO cells (human, UniProt Q9NZQ7 19-290); test: FACS, CHO cells
T2 construct: whole, on cells; also used for human PD-L1 on Raji cells in the reporter assay; also called cell surface PD-L1; Raji-PD-L1 cells

[3] = molecular target: T3, Ly090 (human CD40 ECD protein with His tag) (human, UniProt P25942 21-193); test: bridging ELISA, coated CD40 ECD-His, soluble PD-L1 ECD-mFc
T3 construct: extracellular domain; also called human CD40 ECD protein (His tag); recombinant human CD40; not shown: His tag

[4] = molecular target: T4, Human PD-L1 ECD protein (mouse IgG2a Fc tag) (human, UniProt Q9NZQ7 19-238); test: as above
T4 construct: extracellular domain; also called recombinant human PD-L1; not shown: mouse IgG2a Fc tag

Measured: binding result

T2 sequence (Q9NZQ7 19-290): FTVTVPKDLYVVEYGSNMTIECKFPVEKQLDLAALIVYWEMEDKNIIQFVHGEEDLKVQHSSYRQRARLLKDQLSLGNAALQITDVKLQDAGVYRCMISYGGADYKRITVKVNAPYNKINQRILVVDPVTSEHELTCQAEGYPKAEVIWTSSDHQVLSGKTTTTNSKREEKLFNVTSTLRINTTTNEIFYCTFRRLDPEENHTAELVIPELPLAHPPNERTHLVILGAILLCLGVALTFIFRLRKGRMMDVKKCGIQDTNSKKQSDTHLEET
T4 sequence (Q9NZQ7 19-238): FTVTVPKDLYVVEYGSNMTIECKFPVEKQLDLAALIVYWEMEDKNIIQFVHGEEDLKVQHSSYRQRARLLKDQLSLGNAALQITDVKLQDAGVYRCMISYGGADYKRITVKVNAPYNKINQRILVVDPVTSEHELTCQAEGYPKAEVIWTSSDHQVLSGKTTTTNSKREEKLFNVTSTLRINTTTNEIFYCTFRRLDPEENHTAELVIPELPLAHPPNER
T1 sequence (P25942 21-277): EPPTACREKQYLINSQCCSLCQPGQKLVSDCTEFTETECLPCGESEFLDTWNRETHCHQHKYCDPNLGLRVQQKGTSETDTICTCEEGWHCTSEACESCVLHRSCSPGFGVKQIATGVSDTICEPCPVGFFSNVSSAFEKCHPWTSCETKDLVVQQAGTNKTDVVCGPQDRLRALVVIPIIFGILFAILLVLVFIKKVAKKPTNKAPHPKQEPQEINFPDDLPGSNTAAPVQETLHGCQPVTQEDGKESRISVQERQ
T3 sequence (P25942 21-193): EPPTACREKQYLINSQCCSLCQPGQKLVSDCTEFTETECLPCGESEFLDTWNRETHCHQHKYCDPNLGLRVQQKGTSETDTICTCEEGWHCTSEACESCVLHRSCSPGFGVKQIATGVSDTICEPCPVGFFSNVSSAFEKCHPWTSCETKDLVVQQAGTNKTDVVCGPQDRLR

B1: Ly350 (bispecific antibody, human IgG1, kappa)
heavy: QVQLVQSGAEVKKPGASVKVSCKASGYTFTDFWMSWVRQAPGQGLEWMGQIYPNTGTTHSNEKFKGRVTMTRDTSTSTVYMELSSLRSEDTAVYYCARSYHISTTPNWFAYWGQGTLVTVSSASTKGPSVFPLAPSSKSTSGGTAALGCLVKDYFPEPVTVSWNSGALTSGVHTFPAVLQSSGLYSLSSVVTVPSSSLGTQTYICNVNHKPSNTKVDKKVEPKSCDKTHTCPPCPAPELLGPSVFLFPPKPKDTLMISRTPEVTCVVVDVSHEDPEVKFNWYVDGVEVHNAKTKPREEQYNSTYRVVSVLTVLHQDWLNGKEYKCKVSNKALPAPIEKTISKAKGQPREPQVYTLPPSREEMTKNQVSLTCLVKGFYPSDIAVEWESNGQPENNYKTTPPVLDSDGSFFLYSKLTVDKSRWQQGNVFSCSVMHEALHNHYTQKSLSLSPG
light: DIQMTQSPSSLSASVGDRVTITCKASQNVYKKLEWYQQKPGKVPKVLIYHTNILQTGVPSRFSGSGSGTDYTLTISSLQPEDVATYYCYQWNSGPTFGGGTKVEIKRTVAAPSVFIFPPSDEQLKSGTASVVCLLNNFYPREAKVQWKVDNALQSGNSQESVTEQDSKDSTYSLSSTLTLSKADYEKHKVYACEVTHQGLSSPVTKSFNRGECGGGGSGGGGSGGGGSGGGGSDIQMTQSPSSLSASVGDRVTITCLASEDISNDLAWYQQKPGKAPKLLIYFVDRLLDGVPSRFSGSGSGTDFTLTISSLQPEDFATYYCQQSYKYPPTFGQGTKLEIKGGGGSGGGGSGGGGSGGGGSEVQLVESGGGLVQPGGSLRLSCAASGFTFTNYGLHWVRQAPGKGLEWVSSISPSGGVTYYRDSVKGRFTISRDNSKNTLYLQMNSLRAEDTAVYYCAKPFLGWGGANWIAHWGQGTLVTVSS
notes: Ly076 HC (IgG1 mutated Fc) + Ly076 LC-TM559 scFv VL-VH
binds: all assays above
